The values that follow come from the DeepSol protein solubility set.

This data set is described as follows: soluble on expression in E. coli; label from the status in PepcDB or PDB records.
With “MGSDKIHHHHHHMKYRFENHCVDKQCNLHIFADGKAAHSSTPEDGVNAVTHLAALLSPELNDKPWPKTSASLTVAAMNELVGLGIYAEQFGDLAYKDDFMGPLTLAPTVVVQTQKGTEVTINLRRPVGKTPELLAKQAREALALWQDKHQVQLADIESYWGEPMVMKGAPQQQTLLDVFAHFTGIVDPKPVAIGGSTNSKLFPNALSFGPAMPGVEYTGHTEKEFITHKQFMLNLKMYTAAFIELSAVK”, the “soluble on expression in E. coli” value was “not soluble”. Turning to “MGSDKIHHHHHHMLSTVFRRTMATGRHFIAVCQMTSDNDLEKNFQAAKNMIERAGEKKCEMVFLPECFDFIGLNKNEQIDLAMATDCEYMEKYRELARKHNIWLSLGGLHHKDPSDAAHPWNTHLIIDSDGVTRAEYNKLHLFDLEIPGKVRLMESEFSKAGTEMIPPVDTPIGRLGLSICYDVRFPELSLWNRKRGAQLLSFPSAFTLNTGLAHWETLLRARAIENQCYVVAAAQTGAHNPKRQSYGHSMVVDPWGAVVAQCSERVDMCFAEIDLSYVDTLREMQPVFSHRRSDLYTLHINEKSSETGGLKFARFNIPADHIFYSTPHSFVFVNLKPVTDGHVLVSPKRVVPRLTDLTDAETADLFIVAKKVQAMLEKHHNVTSTTICVQDGKDAGQTVPHVHIHILPRRAGDFGDNEIYQKLASHDKEPERKPRSNEQMAEEAVVYRNLM”, the “soluble on expression in E. coli” value is on record as “not soluble”.

For “MGSDKIHHHHHHMTISISEPTPPASLLAIKDEIRAEALKLGFSVCGFASATDAWPNGGWLREFVQAERHGAMGWMEETLERRSHPTAMWTDAKSAVVLGVNYGPDIDPLEQLADPARAAISVYAQGDDYHDVIKKRLKVLAGWMHRRFGQEVKVFVDTAPLLEKPLAQRAGLGWQGKHTNLVSRQFGSWLFLGSVLTTLDLPADDAEVDHCGSCRACLDVCPTNAFPAPRQLDARRCISYLTIELSGPIPAEFRPAMGNRIYGCDDCLAVCPWNKFASLSNEAKLVAREALRQPSLAELAVLDDAAFRALFSKNPIKRIGRDRFVRNVLYAIGNSGDAGLMAVVEPLLDDPAPVVRGAAVWAARRLLGDDAAALKRGENDESVLAEWS”, the “soluble on expression in E. coli” value is “not soluble”. The value for “SVDILVIPGHVRGDAAVISKVVGRPVYKGTVSPVYIPDIMKILRSGGKLDTEKPAEEVVKLSDYTSKIVFREAFRVGSLRIPLKPPPLLVVAEIPPTVAEDGIAGLAARMERDGASMVAVGTGFDDDPQVVHEKVRTALSALKDSPVIAETPTLDHAYSALKAGASGVIMPVETAVRLASEKPLPGDAFIIVSGEQPEELAKAVESLRTSGYSKVAVDPSLSPPLLGLLESIERFRRASRLLNVPLVFSAANVAEEVQADSHGVHALLALMALEAGASIYYVVEDSYKSYRSTAEAAEAARYASAARTLFSPRIPLTRLFVVKQPRRPPNPVEPPGERVNVDYIPPSMDRTGYAHIQVDHERGVIMLTFYPAGGEPVTFEGRKPTSLLRALTSRFPVSSEHAGYIGYELAKAEIALALGKTYVQDSPVLVPVWGGLDEE” was “not soluble”; that for “MKGKMAIVISTLNNPWFVVLAETAKQRAEQLGYEATIFDSQNDTAKESAHFDAIIAAGYDAIIFNPTDADGSIANVKRAKEAGIPVFCVDRGINARGLAVAQIYSDNYYGGVLMGEYFVKFLKEKYPDAKEIPYAELLGILSAQPTWDRSNGFHSVVDQYPEFKMVAQQSAEFDRDTAYKVTEQILQAHPEIKAIWCGNDAMALGAMKACEAAGRTDIYIFGFDGAEDVINAIKEGKQIVATIMQFPKLMARLAVEWADQYLRGERSFPEIVPVTVELVTRENIDKYTAYGRKEEGSHHHHHH” was “soluble”.

On to “EQSAYRIHSAYMVGGGGSITRDTYLSPLRYGGWTLNLLGEKTFPLKASDSRWMIRTGHELDFALMDNPANNAHFYSLLYNGSAAALYRLGAKHLRAAWMDNLRLAFGPGLEIGLGGIYSTRNGNNPATLKLYTNAIAQASIGYYVPSETFPLYFRLLSQINLFGIAYGNGFGESYYENFLLNNGIAGSLHFTYPGKFTRFTTLITADIPIRNFCTLRVGYRYSHLGSSLNALDTRIHSHTAFIGFVTEFYRFRGRKAMNTGRRTSLYYHD”, for which the “soluble on expression in E. coli” value is “not soluble”. The value for “MAISIKTPEDIEKMRVAGRLAAEVLEMIEPYVKPGVSTGELDRICNDYIVNEQHAVSACLGYHGYPKSVCISINEVVCHGIPDDAKLLKDGDIVNIDVTVIKDGFHGDTSKMFIVGKPTIMGERLCRITQESLYLALRMVKPGINLREIGAAIQKFVEAEGFSVVREYCGHGIGQGFHEEPQVLHYDSRETNVVLKPGMTFTIEPMVNAGKKEIRTMKDGWTVKTKDRSLSAQYEHTIVVTDNGCEILTLRKDDTIPAIISHDELVPRGSLEHHHHHH” was “soluble”; that for “MGSDKIHHHHHHMTKHFSPYDADKPLFATCSCGQHASEEDHLKAGMSTLEHQETGRSTEEEFSNDFIEAALVKAILPHERQRRDFLRAVGKGAAMAAISAVFPLGSLKAMAMEKGSIEKSTLKVGFIPITCAAPLILAEPMGFFKEQGLNVELNKTAGWALVRDKIMNHEYDASQFLAPMPLAMTLGAGSSAQTVNVAAIQNVNGQAIVLALKHKSNRDPKNWKGFKFAIPFEFSMHNFLLRYYLAEAGIDPDRDVQLRVVPPAEMLANLRAGNIDGFLGPDPFSQRAVFEGVGFIHILSQDIWNGHPCCSFGASASFIQQNPNTFAALYRAFLKSSAFAHDKNNRKEVAAIISKPKYLNQPEIIVNQVITGRYADGLGNIVNAPGRVGFEAIPWEGMALWMLTQMKRWGYLKGDVSYQAIAEKVFMMTDAKKAMQGLGLEVPQSSGKIVVMGKAFDPLKPQSYVDSFGIKR” was “not soluble”; that for “MGSDKIHHHHHHMAGSAGGLSASDGDFFLCDLFDPVPKGDLGTMEHPVFSLATRPDRRILTYEHNGVEITVTPSVKGRATIFDKDILIFCTSQLMAAINANRPVSRTLQLTAHDLLLATGRDRSGDGYKRLRAAFERLAGTRITTNLITGGVEVTQGFGLIEAWQIVRRTRNGRMVSVSVTLSEWLYRAALTKSVLTLSRQYFRMRKPLERRIYELARKHCGRQNEWRVSVDTLLKKSGSASPRRVFRAMLREMIAADALPDYHLQEEPGDILRVTLRDAVIEAAGRPIVSSDTLNQARALMPGWDVYVLEAEWRNWWAATGRPHLRSPDKAFLGWVRTQAARA” was “not soluble”. In the case of “MEKKLPRIKALLTPGEVAKRSGVAVSALHFYESKGLITSIRNSGNQRRYKRDVLRYVAIIKIAQRIGIPLATIGEAFGVLPEGHTLSAKEWKQLSSQWREELDRRIHTLVALRDELDGCIGCGCLSRSDCPLRNPGDRLGEEGTGARLLEDEQN”, the “soluble on expression in E. coli” value is recorded as “soluble”. Take “MASQTQGIQQLLAAEKRAAEKINEARKRKLQRTKQAKQEAQAEVEKYKQQREAEFKAFEQQYLGTKEDIESKIRRDTEDQISGMKQSVAGNKQAVIVRLLQLVCDIKPELHHNLTLQKKLHGQFAA”: the “soluble on expression in E. coli” value is “not soluble”. With “GPGSMVRKNMYDGWSYERLRQQRNRAHFLLEDPYRFVTVLLHNGKLYAIDSPCYHASGPLGEGELMDLEDSHTAASVACLRCPWHNILVAIDTGEIVEVHPDTSAVRGKDDGGRELAAPSYPLRPHWEASAGSVRLSRGNVVQRTHKVSLDESNGIMTIEIEDEATMRRHPLPSDAAAGILESGALTMQIFDIKSKGMS”, the “soluble on expression in E. coli” value is reported as “soluble”.

Consider “MGSDKIHHHHHHGADVETPSVSISVSPENPKVGEEVTVTINTDAQYLTLFTGDEGKNFERSRIKAIMEHDWDSFYEECYRVSYAKNGEKTLFYKYFKDYQSIEDVKKDFEFFGAIDNIQLVPYKKGDFPEALMEMSYIGTNQLKFTVTDRRIPSGIRMKPNIHIFGGLANQPGNTIIESRFVACDADRAIRKYSNDAWVAAYFGLHTEQLEDFQGYSAGYKYYTFQDERSYGAFQTNDPLSRRPTEGFYKLGDMYNRDTYLQPFLDHGEKIILRQVDMYVNGRSTFVAADDSPYKYDLDGDGVLESYECELDPATGLPVHEADYTKYKGFQGDVYLSFIEMGTDEYEPWNTGVSLGSVYTTGGIQKTYKYIYTGAGDFTITAVATNVGDKDYKGIDYSEERSNSLDDYSHKRALSSVKVSVKP”, for which the “soluble on expression in E. coli” value is listed as “not soluble”.
